Assay results reported in paper PMC11201974, “Structural Insights into the Rrp4 Subunit from the Crystal Structure of the Thermoplasma acidophilum Exosome” (Biomolecules, 2024).

T1: TaciRrp41:42 complex (Thermoplasma acidophilum exosome core, Rrp41 with truncated Rrp42) (Thermoplasma acidophilum, UniProt Q9HIP2 1-248; Q9HIP1 20-240)
T1 construct: Exosome complex component Rrp41 of Thermoplasma acidophilum; as the chain of m1; Exosome complex component Rrp42 of Thermoplasma acidophilum, truncated core domain of residues 20-240; as the chain of m2; The complex was purified on Ni-NTA and labelled with the His-tag labelling kit (RED-tris-NTA) for MST; the oligomeric state in the MST sample was not measured; also called TaciRrp41/cd-TaciRrp42; …
T1 sequence 1: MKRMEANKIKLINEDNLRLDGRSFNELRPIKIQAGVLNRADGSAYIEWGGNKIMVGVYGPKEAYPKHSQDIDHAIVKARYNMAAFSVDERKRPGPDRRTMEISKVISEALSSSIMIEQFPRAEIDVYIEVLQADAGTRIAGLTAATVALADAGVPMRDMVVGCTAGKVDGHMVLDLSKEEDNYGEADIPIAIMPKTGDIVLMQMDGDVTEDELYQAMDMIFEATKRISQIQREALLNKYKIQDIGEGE
T1 sequence 2: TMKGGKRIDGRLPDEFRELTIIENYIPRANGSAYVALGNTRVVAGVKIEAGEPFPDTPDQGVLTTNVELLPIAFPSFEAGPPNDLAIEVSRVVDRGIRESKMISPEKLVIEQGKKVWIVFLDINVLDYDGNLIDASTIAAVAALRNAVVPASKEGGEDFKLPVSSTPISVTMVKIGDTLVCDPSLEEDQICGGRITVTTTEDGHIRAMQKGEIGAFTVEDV

T2: Thermoplasma acidophilum exosome subunit Rrp41 (TaciRrp41) (Thermoplasma acidophilum, UniProt Q9HIP2 1-248)
T2 construct: Exosome complex component Rrp41 of Thermoplasma acidophilum; Single subunit (pET22b) used as ligand in MST; in the crystals the chain came from the pETDuet-1 co-expression with TaciRrp42; source: E. coli BL21 (DE3), from pET22b alone or from pETDuet-1 co-expressed with TaciRrp42; purified (Ni-NTA, Superdex 200)
T2 sequence: T1 sequence 1

B1: Thermoplasma acidophilum exosome subunit Rrp4 (TaciRrp4) (natural protein, UniProt Q9HIP3 1-236, looked up)
chain: MYQLGDVKKIVLPGDPIEVQGKMRNGVYRGQDNRYYSEYFGTLQVNDQFVDVVPFSGQYIPRKGDKVIGKVIEVGPSTWTVDINSPYFAMLHMNDTPWRMSSGDLKRYLNAGDYIYAKIMSVNEIKESWLTLKEPGLKKLEGGHMVLIHASRVPRVIGKGGGMVNMVKELTATRIIIGQNGLIWIDGPIEGVTMAIAAIEMIEREAHTEGLTARVESFLKELKGEKDGSQQNKADQ
notes: Exosome complex component Rrp4 of Thermoplasma acidophilum (N-terminal domain, S1 domain, KH domain); also called TaciRrp4-capping protein; source: E. coli Rosetta, from pET22b; purified (Ni-NTA, Superdex 200)
B2: Thermoplasma acidophilum exosome subunit Rrp42, truncated core domain, residues 20-240 (TaciRrp42) (domain or fragment, UniProt Q9HIP1 20-240, looked up)
chain: T1 sequence 2
modifications: RED-tris-NTA fluorescent dye on the His tag (in MST)
notes: Exosome complex component Rrp42 of Thermoplasma acidophilum, truncated Rrp42 corresponding to the core domain composed of residues 20-240; Single subunit (pET28a) was the labelled target in MST; in the crystals the chain came from the pETDuet-1 co-expression; also called cd-TaciRrp42; source: E. coli BL21 (DE3), from pET28a alone or from pETDuet-1 co-expressed with TaciRrp41; purified (Ni-NTA, …)

What was measured:
Assay in all cases: MST; target (TaciRrp42 or TaciRrp41:42) labelled by RED-tris-NTA His-tag kit, 50 nM; ligand in sixteen serial dilutions (TaciRrp41 550 μM to 16.6 nM; TaciRrp4 200 μM to 6.1 nM); 30 min incubation; LED power and MST power 40%; triplicate
Settings in all cases: both partners purified
[1] = target: T1, TaciRrp41:42 complex (Thermoplasma …)
[2] = target: B1
[3] = target: T2, Thermoplasma acidophilum exosome …

Binder | Kd [1] [µM] | Kd [2] [µM] | Kd [3] [µM]
B1 | 200 | – | –
B2 | – | 4.82 | 169
